The values below come from patent publication US20150320832A1.

The assay addresses Flightless I protein (human, endogenous in MET-1 and CC keratinocytes) (human) (UniProt Q13045). The assay can be described thus: cell-based or functional assay.
Sequence of UniProt Q13045 (Q13045 whole entry): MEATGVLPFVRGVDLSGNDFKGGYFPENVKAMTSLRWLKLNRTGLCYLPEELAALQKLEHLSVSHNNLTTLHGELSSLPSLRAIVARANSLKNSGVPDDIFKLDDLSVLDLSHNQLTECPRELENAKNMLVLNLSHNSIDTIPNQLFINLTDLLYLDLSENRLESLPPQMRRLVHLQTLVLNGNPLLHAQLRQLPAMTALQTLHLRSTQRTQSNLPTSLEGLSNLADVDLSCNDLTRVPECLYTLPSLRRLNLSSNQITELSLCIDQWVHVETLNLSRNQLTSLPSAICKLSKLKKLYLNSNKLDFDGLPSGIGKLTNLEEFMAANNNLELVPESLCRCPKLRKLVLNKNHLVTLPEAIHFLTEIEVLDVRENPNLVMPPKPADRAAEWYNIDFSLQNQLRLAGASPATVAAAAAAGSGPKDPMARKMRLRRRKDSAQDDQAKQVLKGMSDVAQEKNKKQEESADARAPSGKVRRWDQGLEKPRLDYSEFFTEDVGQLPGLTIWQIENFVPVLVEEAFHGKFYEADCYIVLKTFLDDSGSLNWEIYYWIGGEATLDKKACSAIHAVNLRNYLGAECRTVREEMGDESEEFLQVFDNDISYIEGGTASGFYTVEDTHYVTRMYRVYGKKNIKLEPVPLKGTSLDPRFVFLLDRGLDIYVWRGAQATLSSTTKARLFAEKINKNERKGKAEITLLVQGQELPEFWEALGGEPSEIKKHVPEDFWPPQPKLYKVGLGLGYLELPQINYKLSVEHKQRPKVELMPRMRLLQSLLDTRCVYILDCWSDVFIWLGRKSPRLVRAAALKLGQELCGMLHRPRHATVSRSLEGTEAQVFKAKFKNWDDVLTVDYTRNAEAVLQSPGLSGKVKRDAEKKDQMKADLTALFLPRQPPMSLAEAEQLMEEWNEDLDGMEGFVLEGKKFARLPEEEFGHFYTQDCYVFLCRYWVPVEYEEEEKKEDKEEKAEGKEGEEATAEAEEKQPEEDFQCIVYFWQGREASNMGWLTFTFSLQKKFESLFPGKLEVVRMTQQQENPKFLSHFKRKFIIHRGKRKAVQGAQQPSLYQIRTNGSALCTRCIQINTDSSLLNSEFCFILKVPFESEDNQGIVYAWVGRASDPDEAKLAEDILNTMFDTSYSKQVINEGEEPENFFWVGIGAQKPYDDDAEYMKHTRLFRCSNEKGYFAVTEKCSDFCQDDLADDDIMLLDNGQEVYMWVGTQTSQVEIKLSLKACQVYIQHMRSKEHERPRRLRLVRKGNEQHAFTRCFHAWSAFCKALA

With “rFLAP-1 protein (LRRFIP1 (657-784) Protein-H00009208-Q01, Abnova Technologies) (from UniProt Q32MZ4 657-784)”, the decrease in cell invasion properties of RDEB-SCC (CC) cells, 3D organotypic model turned out to be 30% and the decrease in cell invasion properties of sporadic SCC (MET-1) cells, 3D organotypic model is 60%.
